According to IntAct's records for PubMed 12502741:

Molecular target: rb_human RB1 (UniProt P06400)
Sequence (P06400 whole entry): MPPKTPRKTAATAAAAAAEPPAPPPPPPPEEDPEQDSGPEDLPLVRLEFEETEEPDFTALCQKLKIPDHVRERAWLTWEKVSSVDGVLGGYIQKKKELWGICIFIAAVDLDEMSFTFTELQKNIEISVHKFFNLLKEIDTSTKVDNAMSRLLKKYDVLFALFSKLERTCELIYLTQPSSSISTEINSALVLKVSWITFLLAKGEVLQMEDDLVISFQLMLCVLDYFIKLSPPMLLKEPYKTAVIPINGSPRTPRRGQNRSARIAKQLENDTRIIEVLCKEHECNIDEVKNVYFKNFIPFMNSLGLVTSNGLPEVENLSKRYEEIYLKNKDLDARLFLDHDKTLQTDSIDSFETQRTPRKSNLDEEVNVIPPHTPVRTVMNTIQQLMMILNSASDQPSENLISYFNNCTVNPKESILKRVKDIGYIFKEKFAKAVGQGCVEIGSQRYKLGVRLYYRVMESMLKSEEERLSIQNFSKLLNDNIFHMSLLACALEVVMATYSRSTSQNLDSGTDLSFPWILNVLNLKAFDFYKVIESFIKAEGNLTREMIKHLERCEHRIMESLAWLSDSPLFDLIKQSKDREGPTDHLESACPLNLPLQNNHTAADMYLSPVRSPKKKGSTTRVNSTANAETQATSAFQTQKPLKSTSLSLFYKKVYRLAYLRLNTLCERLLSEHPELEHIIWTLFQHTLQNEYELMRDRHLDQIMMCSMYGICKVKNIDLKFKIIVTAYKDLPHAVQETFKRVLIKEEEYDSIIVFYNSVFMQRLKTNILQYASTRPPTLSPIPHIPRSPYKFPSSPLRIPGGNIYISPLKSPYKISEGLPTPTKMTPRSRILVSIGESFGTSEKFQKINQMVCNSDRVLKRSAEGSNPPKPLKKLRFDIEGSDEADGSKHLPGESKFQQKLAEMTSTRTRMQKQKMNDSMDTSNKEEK

Sequence of Transcription factor E2F2 (Homo sapiens), Q14209 E420A (Q14209 whole entry E420A): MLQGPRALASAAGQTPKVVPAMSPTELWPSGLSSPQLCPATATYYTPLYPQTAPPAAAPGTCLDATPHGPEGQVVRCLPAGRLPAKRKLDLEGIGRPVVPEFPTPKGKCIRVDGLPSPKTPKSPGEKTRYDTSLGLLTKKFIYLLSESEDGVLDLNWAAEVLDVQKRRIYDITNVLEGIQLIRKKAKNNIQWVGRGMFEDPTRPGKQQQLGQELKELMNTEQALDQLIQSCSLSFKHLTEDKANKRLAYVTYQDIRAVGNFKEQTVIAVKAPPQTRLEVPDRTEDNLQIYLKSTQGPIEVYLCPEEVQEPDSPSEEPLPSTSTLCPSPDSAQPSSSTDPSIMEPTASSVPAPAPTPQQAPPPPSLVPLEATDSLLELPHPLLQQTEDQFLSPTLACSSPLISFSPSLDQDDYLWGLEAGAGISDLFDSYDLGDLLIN
Sequence of Transcription factor E2F2 (Homo sapiens), Q14209 G421S (Q14209 whole entry G421S): as the sequence (Q14209 whole entry E420A) above, with A420E, G421S counted along it

## Transcription factor E2F2 (Homo sapiens), Q14209 G421S
  effect of a mutation on the interaction: decreasing interaction strength

## Transcription factor E2F2 (Homo sapiens), Q14209 E420A
  effect of a mutation on the interaction: decreasing interaction strength
